The labels stand for the following.
B1: murine GATA2 finger region containing the NF and CF domains (289 aa to 480 aa), wild type, MBP-fused or GST-fused (domain or fragment)
chain: not shown
notes: GATA2, murine, finger region containing the NF and CF domains, residues 289-480; Two differently tagged copies of the same stretch were used; Each copy carries ONE carrier: MBP-fused (bait on amylose beads) or GST-fused (prey in a1, bait on glutathione beads in a2); They are kept as one molecule because the protein is tested against itself; also called G2^WT; MBP-fused G2^WT
B2: murine GATA2 finger region (289 aa to 480 aa) with T354M, GST-fused or MBP-fused (domain or fragment)
chain: not shown
notes: GATA2, murine, finger region containing the NF and CF domains, residues 289-480, with the patient mutation T354M; Each copy carries ONE carrier: GST-fused in a1 (prey), MBP-fused in a2 (prey); The mutation is a germline GATA2 mutation found in patients; also called G2^T354M; GST-fused G2^T354M
B3: murine GATA2 finger region (289 aa to 480 aa) with R398W, GST-fused or MBP-fused (domain or fragment)
chain: not shown
notes: GATA2, murine, finger region containing the NF and CF domains, residues 289-480, with the patient mutation R398W; Each copy carries ONE carrier: GST-fused in a1 (prey), MBP-fused in a2 (prey); The mutation corresponds to a human germline GATA2 mutation found in patients; also called G2^R398W; GST-fused G2^R398W

Series [1] deals with the molecule itself. Description: pull-down; recombinant MBP-fused bait mixed with GST-fused prey in binding buffer at room temperature; complexes purified with amylose magnetic beads; immunoblot with anti-GST and anti-MBP. For orientation: A western blot detects proteins with antibodies after separation by electrophoresis.
For series [2], the target named is B1. The series is described as above. Particulars: both partners purified.

Consider B1, for which, in series [1], the binding result was “binds”.
B2: the binding result in series [2] was “binds”.
In the case of B3, the binding result in series [2] was “binds”.

The values above are taken from article PMC9018821, “Heterozygous variants in GATA2 contribute to DCML deficiency in mice by disrupting tandem protein binding” (Communications Biology, 2022).
